Target: TPP-2305 (hTNFRSF12Aaa28-80) (Human) (UniProt Q9NP84)
Assay: SPR (Biacore T100), IgG captured, TPP-2305 injected, 1:1 model

- Kd: 2.9 nM
- koff: 0.011 s⁻¹
- kon: 3.8e+06 M⁻¹ s⁻¹
B1: ITEM-1 (antibody, from another filing, mouse IgG1, V domains shown)
VH: EVKLEESGGGLVQPGGSMKLSCVASGFSFSNYWMNWVRQSPEKGLEWVAEIRLKSNNYATHYAESVKGRFTISRHDSKSSVYLQMNNLRAEDTGIYYCTRAYADYFDYWGQGTTLTVSS
VL: DIVLTQSPASLVVSLGQRATISCRASQSVSTSTYSYMHWYQQKPGQPPKILIKYASNLESGVPARFSGSGSGTDFTLNIHPVEEEDTATYYCQHSWEIPYTFGGGTKLEIKR

Reference: patent publication US20160237160A1, “ANTI-TWEAKR ANTIBODIES AND USES THEREOF” (BAYER PHARMA AKTIENGESELLSCHAFT, priority 2013, published 2016)
